Measured values: publication PMC12077149, “Evolution of PqsE as a Pseudomonas aeruginosa-specific regulator of LuxR-type receptors: insights from Pseudomonas and Burkholderia” (mBio, 2025)

Legend:
[1] = tested on: CCCC(=O)Oc1ccc2c(C)cc(=O)oc2c1; assay: purified protein; conditions: 50 mM Tricine, 0.01% Triton X-100; 2 µM enzyme; substrate up to 8 µM
[2] = tested on: CC(=O)CC(=O)SCCNC(=O)CCNC(=O)[C@H](O)C(C)(C)COP(=O)(O)OP(=O)(O)OC[C@H]1O[C@@H](n2cnc3c(N)ncnc32)[C@H](O)[C@@H]1OP(=O)(O)O; assay: purified protein; conditions: 0.1 M Tris-HCl pH 8.0, 2 mM DTNB, 2 µM enzyme, substrate up to 1 mM

Substance: PqsE (Pseudomonas aeruginosa UCBPP-PA14)
- Km [1]: 8.1 ± 0.1 µM
- kcat [1]: 0.0197 ± 0.09 s⁻¹
- kcat/Km [1]: 2400 M⁻¹ s⁻¹
- Km [2]: 3200 ± 200 µM
- kcat [2]: 0.438 ± 0.05 s⁻¹
- kcat/Km [2]: 140 M⁻¹ s⁻¹
